# In paper PMC10014064:
# Legend:
# [1] = target: amyloid precursor protein (APP), mouse (mouse (endogenous in C57BL/6 hippocampus))
# [2] = target: amyloid precursor protein (APP), mouse (mouse (endogenous in C57BL/6 hippocampus)); remark: listed apart in the source
substance,measurement,setting,value
"GluN2B subunit of the NMDA receptor, mouse (from UniProt Q01097 27-1482)","effect of ifenprodil (5 μM, GluN2B antagonist) on NMDAR EPSCs in infant neurons previously incubated with the Y188 antibody against the APP C-terminal, versus the control condition",[1],19.8%
same,"reduction in NMDAR EPSCs in CA1 pyramidal neurons of infant mice with the APP C-terminal antibody Y188 (2.5 nM) in the recording pipette, compared with boiled Y188",[2],21.1%
